Measured values as given in publication PMC9849366, “Evolutionary fine-tuning of residual helix structure in disordered proteins manifests in complex structure and lifetime” (Communications Biology, 2023).
Primed or numbered codes have the meaning given here. FITC′ = fluorescein isothiocyanate

B1: FITC-DREB2A(246-272) R266G (peptide, UniProt O82132 246-272, looked up)
peptide: {FITC′}-NDVDQSHLDSSDMFDVDELLGDLNGDD-NH2
modifications: also: acetylation stated, site not given here
notes: also called fluorescently labeled DREB2A(244-272)-R266G; DREB2A-R266G; source: synthetic peptide, bought: TAG Copenhagen A/S (>98% purity)
B2: FITC-DREB2A(246-272) D267L (peptide, UniProt O82132 246-272, looked up)
peptide: {FITC′}-NDVDQSHLDSSDMFDVDELLRLLNGDD-NH2
modifications: also: acetylation stated, site not given here
notes: also called fluorescently labeled DREB2A(244-272)-D267L; DREB2A-D267L; source: synthetic peptide, bought: TAG Copenhagen A/S (>98% purity)
B3: FITC-DREB2A(246-272) WT (peptide, UniProt O82132 246-272, looked up)
peptide: {FITC′}-NDVDQSHLDSSDMFDVDELLRDLNGDD-NH2
modifications: also: acetylation stated, site not given here
notes: also called fluorescently labeled DREB2A(244-272)-WT; source: synthetic peptide, bought: TAG Copenhagen A/S (>98% purity)
B4: FITC-DREB2A(246-272) R266A (peptide, UniProt O82132 246-272, looked up)
peptide: {FITC′}-NDVDQSHLDSSDMFDVDELLADLNGDD-NH2
modifications: also: acetylation stated, site not given here
notes: also called DREB2A-R266A; DREB2A(244-272) variant R266A; source: synthetic peptide, bought: TAG Copenhagen A/S (>98% purity)
B5: DREB2A(244-272)-WT (peptide, UniProt O82132 244-272, looked up)
chain: WPNDVDQSHLDSSDMFDVDELLRDLNGDD
notes: Expressed as GST-tagged peptide; 13C,15N-labelled for NMR, unlabelled for ITC; also called DREB2A-WT; source: E. coli BL21(DE3), purified (Glutathione Sepharose 4B, reversed phase Vydac C18)
B6: RCD1-RST(499-572) (domain or fragment, Arabidopsis thaliana, UniProt Q8RY59 499-572, looked up)
chain: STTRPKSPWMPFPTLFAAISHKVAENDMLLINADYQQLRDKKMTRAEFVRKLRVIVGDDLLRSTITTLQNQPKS
notes: also called AtRCD1-RST; αα-hub RCD1-RST; source: E. coli BL21(DE3), purified (Source 15S cation exchange, Superdex 75 SEC)
B7: DREB2A(244-272)-R266G (peptide, UniProt O82132 244-272, looked up)
chain: WPNDVDQSHLDSSDMFDVDELLGDLNGDD
notes: Expressed as GST-tagged peptide; 13C,15N-labelled for NMR, unlabelled for ITC; also called DREB2A-R266G; source: E. coli BL21(DE3), purified (Glutathione Sepharose 4B, reversed phase Vydac C18)
B8: DREB2A(244-272)-D267L (peptide, UniProt O82132 244-272, looked up)
chain: WPNDVDQSHLDSSDMFDVDELLRLLNGDD
notes: Expressed as GST-tagged peptide; 13C,15N-labelled for NMR, unlabelled for ITC; also called DREB2A-D267L; source: E. coli BL21(DE3), purified (Glutathione Sepharose 4B, reversed phase Vydac C18)
B9: FITC-DREB2A(246-272) D267A (peptide, UniProt O82132 246-272, looked up)
peptide: {FITC′}-NDVDQSHLDSSDMFDVDELLRALNGDD-NH2
modifications: also: acetylation stated, site not given here
notes: also called DREB2A-D267A; DREB2A(244-272) variant D267A; source: synthetic peptide, bought: TAG Copenhagen A/S (>98% purity)

Key:
[1] = molecular target: DREB2A 244-272 (Arabidopsis thaliana) (UniProt O82132); assay: stopped-flow kinetics; conditions: cited from earlier work
RCD1-RST(499-572) [2] = molecular target: B6; assay: stopped-flow fluorescence spectroscopy; association kinetics; 10 °C, 50 mM HEPES pH 7.4, 50 mM NaCl; conditions: both partners purified
RCD1-RST(499-572) [3] = molecular target: B6; assay: stopped-flow fluorescence spectroscopy; association kinetics; 10 °C, 50 mM HEPES pH 7.4, 150 mM NaCl; conditions: both partners purified
RCD1-RST(499-572) [4] = molecular target: B6; assay: stopped-flow fluorescence spectroscopy; association and displacement (dissociation) kinetics; 10 °C, 50 mM HEPES pH 7.4, 200 mM NaCl; conditions: both partners purified
RCD1-RST(499-572) [5] = molecular target: B6; assay: stopped-flow fluorescence spectroscopy; association and displacement (dissociation) kinetics; 10 °C, 50 mM HEPES pH 7.4, 300 mM NaCl; conditions: both partners purified
RCD1-RST(499-572) [6] = molecular target: B6; assay: stopped-flow fluorescence spectroscopy; association and displacement (dissociation) kinetics; 10 °C, 50 mM HEPES pH 7.4, 500 mM NaCl; conditions: both partners purified
RCD1-RST(499-572) [7] = molecular target: B6; assay: stopped-flow fluorescence spectroscopy; association and displacement (dissociation) kinetics; 10 °C, 50 mM HEPES pH 7.4, 800 mM NaCl; conditions: both partners purified
RCD1-RST(499-572) [8] = molecular target: B6; assay: stopped-flow fluorescence spectroscopy; 0.1 µM FITC-DREB2A peptide mixed with 1-6 µM RCD1-RST(499-572) (kon); preformed complex 1:0.1 µM displaced with 5-60 µM unlabelled DREB2A(244-272) (koff); Kd from the rate constants; 10 °C, 50 mM HEPES pH 7.4, 100 mM NaCl; conditions: both partners purified
RCD1-RST(499-572) [9] = molecular target: B6; assay: as above; conditions: both partners purified; remark: listed apart in the source
RCD1-RST(499-572) [10] = molecular target: B6; assay: ITC; 9-12 µM DREB2A(244-272) peptide in the cell, 92-100 µM RCD1-RST(499-572) in the syringe; 25 °C, 50 mM HEPES pH 7.4, 300 mM NaCl; one set of sites model; n = 3; conditions: both partners purified
DREB2A(244-272)-WT = molecular target: B5; assay: as above; conditions: both partners purified

Molecule | kon (RCD1-RST(499-572) [3]) | kon (RCD1-RST(499-572) [4]) | kon (RCD1-RST(499-572) [5]) | kon (RCD1-RST(499-572) [6]) | koff (RCD1-RST(499-572) [7]) | kon (RCD1-RST(499-572) [7]) | Kd (RCD1-RST(499-572) [8]) | koff (RCD1-RST(499-572) [8]) | kon (RCD1-RST(499-572) [8]) | kon (RCD1-RST(499-572) [9]) | Kd (RCD1-RST(499-572) [10]) | further results
RCD1 499-572 (from UniProt Q8RY59) |  |  |  |  |  |  |  |  |  |  |  | Kd [1]: 0.8 nM
B1 | 1.75e+08 M⁻¹ s⁻¹ | 1.2e+08 M⁻¹ s⁻¹ | 5.59e+07 M⁻¹ s⁻¹ | 2.1e+07 M⁻¹ s⁻¹ | 5.29 s⁻¹ | 1.06e+07 M⁻¹ s⁻¹ | 3 nM | 0.7 s⁻¹ | 2.3e+08 M⁻¹ s⁻¹ | 2.06e+08 M⁻¹ s⁻¹ |  | kon (RCD1-RST(499-572) [2]): 4.13e+08 M⁻¹ s⁻¹
B2 | 1.49e+08 M⁻¹ s⁻¹ | 1.42e+08 M⁻¹ s⁻¹ | 8.1e+07 M⁻¹ s⁻¹ | 4.5e+07 M⁻¹ s⁻¹ | 0.223 s⁻¹ | 2.2e+07 M⁻¹ s⁻¹ | 0.13 nM | 0.03 s⁻¹ | 2.35e+08 M⁻¹ s⁻¹ | 1.78e+08 M⁻¹ s⁻¹ |  | 
B3 | 1.18e+08 M⁻¹ s⁻¹ | 4.5e+07 M⁻¹ s⁻¹ | 3.6e+07 M⁻¹ s⁻¹ | 2.3e+07 M⁻¹ s⁻¹ | 1.78 s⁻¹ | 8e+06 M⁻¹ s⁻¹ |  |  |  | 2.45e+08 M⁻¹ s⁻¹ |  | kon (RCD1-RST(499-572) [2]): 3.35e+08 M⁻¹ s⁻¹; koff (RCD1-RST(499-572) [4]): 0.4 s⁻¹; koff (RCD1-RST(499-572) [5]): 0.53 s⁻¹; koff (RCD1-RST(499-572) [6]): 0.94 s⁻¹; koff (RCD1-RST(499-572) [9]): 0.18 s⁻¹
B4 |  |  |  |  |  |  | 1.5 nM | 0.383 s⁻¹ | 2.46e+08 M⁻¹ s⁻¹ |  |  | 
B5 |  |  |  |  |  |  |  |  |  |  | 84 nM | 
B6 |  |  |  |  |  |  |  |  |  |  |  | dH (DREB2A(244-272)-WT): -16.3 kcal/mol; stoichiometry N (DREB2A(244-272)-WT): 0.84
B7 |  |  |  |  |  |  |  |  |  |  | 369 nM | 
B8 |  |  |  |  |  |  |  |  |  |  | 66 nM | 
B9 |  |  |  |  |  |  | 0.32 nM | 0.07 s⁻¹ | 2.22e+08 M⁻¹ s⁻¹ |  |  | 
